The record followed here is patent US20240252628A1.

This assay concerns the target GDF8, O14793. The assay can be described thus: SPR (Biacore), anti-Fc capture of receptor; very low signal. The conditions noted are these: remark: other sources report otherwise.

GDF8, O14793, sequence (O14793 267-375 limits assumed): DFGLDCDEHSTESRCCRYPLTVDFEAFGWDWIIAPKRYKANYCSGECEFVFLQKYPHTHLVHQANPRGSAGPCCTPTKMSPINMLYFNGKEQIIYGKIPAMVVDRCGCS

B1: ALK4-Fc homodimer, P36896 24-126 (Fc fusion, not shown: a dimerising Fc or GST)
chain: SGPRGVQALLCACTSCLQANYTCETDGACMVSIFNLDGMEHHVRTCIPKVELVPAGKPFYCLSSEDLRNTHCCYTDYCNRIDLRVPSGHLKEPEHPSMWGPVE
In turn, B1 returned a Kd of 15 nM, a koff of 0.0019 s⁻¹ and a kon of 130000 M⁻¹ s⁻¹.
